{"source": "patent US20140242080A1", "about": "(Hoffmann-La Roche, published 2014)", "binders": {"B1": {"name": "Parental M4-3/ML2 Fab (Fab, V domains shown)", "VH": "QVQLQESGPGLVKPSQTLSLTCTVSGGSITSGYYWNWIRQHPGKGLEWIGYITYDGSNNYNPSLKSRVTISRDTSKNQFSLKLSSVTAADTAVYYCADFDYWGQGTLVTVSS", "VL": "DIQMTQSPSSLSASVGDRVTITCRASQGIRNYLNWYQQKPGKAPKLLIYYTSSLHSGVPSRFSGSGSGTDFTLTISSLQPEDFATYYCQQYSKLPWTFGQGTKVEIK", "notes": "Soluble Fab with Flag tag, bacterial supernatant or purified; also called non-matured parental clone"}, "B2": {"name": "M4-3/ML2(C5) Fab (Fab, V domains shown)", "VH": "B1 VH", "VL": "B1 VL with Q27R, N31E, S52G, K93E", "notes": "Soluble Fab with Flag tag"}, "B3": {"name": "M4-3(D6)/ML2 Fab (Fab, V domains shown)", "VH": "B1 VH with Y54F, S57K", "VL": "B1 VL", "notes": "Soluble Fab with Flag tag"}, "B4": {"name": "M4-3(A7)/ML2 Fab (Fab, V domains shown)", "VH": "B1 VH with S31D, Y54F, S57R", "VL": "B1 VL", "notes": "Soluble Fab with Flag tag"}, "B5": {"name": "M4-3/ML2(E10) Fab (Fab, V domains shown)", "VH": "B1 VH", "VL": "B1 VL with Q27Y, N31G, Y87H", "notes": "Soluble Fab with Flag tag"}, "B6": {"name": "M4-3(C1)/ML2 Fab (Fab, V domains shown)", "VH": "B1 VH with Y54F", "VL": "B1 VL", "notes": "Soluble Fab with Flag tag"}, "B7": {"name": "M4-3(B8)/ML2 Fab (Fab, V domains shown)", "VH": "B1 VH with Y54F, S57R", "VL": "B1 VL", "notes": "Soluble Fab with Flag tag"}, "B8": {"name": "M4-3/ML2(G3) Fab (Fab, V domains shown)", "VH": "B1 VH", "VL": "B1 VL with F71Y, K93A", "notes": "Soluble Fab with Flag tag"}, "B9": {"name": "1 + 1 IgG-Crossfab light chain fusion (CH1A1A/V9) (anti-CEA/anti-huCD3) (bispecific antibody)", "chain 1": "DIQMTQSPSSLSASVGDRVTITCRASQDIRNYLNWYQQKPGKAPKLLIYYTSRLESGVPSRFSGSGSGTDYTLTISSLQPEDFATYYCQQGNTLPWTFGQGTKVEIKSSASTKGPSVFPLAPSSKSTSGGTAALGCLVKDYFPEPVTVSWNSGALTSGVHTFPAVLQSSGLYSLSSVVTVPSSSLGTQTYICNVNHKPSNTKVDKKVEPKSC", "chain 2": "DIQMTQSPSSLSASVGDRVTITCKASAAVGTYVAWYQQKPGKAPKLLIYSASYRKRGVPSRFSGSGSGTDFTLTISSLQPEDFATYYCHQYYTYPLFTFGQGTKLEIKRTVAAPSVFIFPPSDEQLKSGTASVVCLLNNFYPREAKVQWKVDNALQSGNSQESVTEQDSKDSTYSLSSTLTLSKADYEKHKVYACEVTHQGLSSPVTKSFNRGECGGGGSGGGGSGGGGSGGGGSEVQLVESGGGLVQPGGSLRLSCAASGYSFTGYTMNWVRQAPGKGLEWVALINPYKGVSTYNQKFKDRFTISVDKSKNTAYLQMNSLRAEDTAVYYCARSGYYGDSDWYFDVWGQGTLVTVSSASVAAPSVFIFPPSDEQLKSGTASVVCLLNNFYPREAKVQWKVDNALQSGNSQESVTEQDSKDSTYSLSSTLTLSKADYEKHKVYACEVTHQGLSSPVTKSFNRGEC", "chain 3": "not shown", "chain 4": "DKTHTCPPCPAPEAAGGPSVFLFPPKPKDTLMISRTPEVTCVVVDVSHEDPEVKFNWYVDGVEVHNAKTKPREEQYNSTYRVVSVLTVLHQDWLNGKEYKCKVSNKALGAPIEKTISKAKGQPREPQVCTLPPSRDELTKNQVSLSCAVKGFYPSDIAVEWESNGQPENNYKTTPPVLDSDGSFFLVSKLTVDKSRWQQGNVFSCSVMHEALHNHYTQKSLSLSPGK", "notes": "also called “1+1 IgG Crossfab light chain (LC) fusion”"}}, "key": {"[1]": {"biological_target": "T1, hu-MCSP(D3 domain)-avi-his (human, UniProt Q6UVK1 1582-2224)", "T1 construct": "Recombinant D3 domain with avi and his tags; also called human MCSP(D3 domain)-avi-his; Human MCSP D3", "T1 sequence": "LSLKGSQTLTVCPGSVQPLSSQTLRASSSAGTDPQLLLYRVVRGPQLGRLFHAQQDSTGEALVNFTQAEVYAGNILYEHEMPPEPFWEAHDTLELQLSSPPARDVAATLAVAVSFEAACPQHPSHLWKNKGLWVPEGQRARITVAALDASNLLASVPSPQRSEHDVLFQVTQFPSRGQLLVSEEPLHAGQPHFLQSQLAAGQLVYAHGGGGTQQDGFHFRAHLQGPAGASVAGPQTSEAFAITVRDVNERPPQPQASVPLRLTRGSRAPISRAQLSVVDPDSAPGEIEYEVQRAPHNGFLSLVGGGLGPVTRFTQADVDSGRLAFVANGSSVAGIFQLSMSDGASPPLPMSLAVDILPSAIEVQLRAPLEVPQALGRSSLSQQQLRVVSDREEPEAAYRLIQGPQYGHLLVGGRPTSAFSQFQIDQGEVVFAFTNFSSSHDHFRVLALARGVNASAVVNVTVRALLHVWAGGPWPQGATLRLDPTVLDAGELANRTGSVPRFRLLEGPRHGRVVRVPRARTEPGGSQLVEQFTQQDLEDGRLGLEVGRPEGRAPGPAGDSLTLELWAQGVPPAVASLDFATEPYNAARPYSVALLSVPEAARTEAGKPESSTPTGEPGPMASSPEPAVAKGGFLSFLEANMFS", "test": "SPR ProteOn XPR36, 25 C; Fab captured via anti-human F(ab')2, MCSP D3 as analyte", "description": "Briefly, carboxymethylated dextran biosensor chips (CM5, GE Healthcare) were activated with N-ethyl-N′-(3-dimethylaminopropyl)-carbodiimide hydrochloride (EDC) and N-hydroxysuccinimide (NHS) according to the supplier's instructions. Anti-human F(ab′)2 fragment specific capture antibody was diluted with 10 mM sodium acetate, pH 5.0 at 50 μg/ml before injection at a flow rate of 10 μl/minute to achieve approximately up to 10.000 response units (RU) of coupled capture antibody. Following the injection of the capture antibody, 1 M ethanolamine is injected to block unreacted groups. For kinetics measurements, Fabs from bacterial supernatant or purified Fabs were injected at a flow rate of 10 μl/minute for 300 s and a dissociation of 300 s for capture baseline stabilization. […] The surface of the sensorchip was regenerated by injection of glycine pH 1.5 for 30 s at 90 μl/min followed by injection of NaOH for 20 s at the same flow rate. Association rates (kₒₙ) and dissociation rates (koff) were calculated using a simple one-to-one Langmuir binding model (ProteOn XPR36 Evaluation Software or Scrubber software (BioLogic)) by simultaneously fitting the association and dissociation sensorgrams. The equilibrium dissociation constant (KD) was calculated as the ratio koff/kₒₙ."}, "[2]": {"biological_target": "T2, human CEA expressed on tumor cells (LS-174T, A549-huCEA, MKN-45, MC38-huCEA, HPAFII, BxPC-3, ASPC-1) (human, UniProt P06731 35-685)", "T2 sequence (looked up)": "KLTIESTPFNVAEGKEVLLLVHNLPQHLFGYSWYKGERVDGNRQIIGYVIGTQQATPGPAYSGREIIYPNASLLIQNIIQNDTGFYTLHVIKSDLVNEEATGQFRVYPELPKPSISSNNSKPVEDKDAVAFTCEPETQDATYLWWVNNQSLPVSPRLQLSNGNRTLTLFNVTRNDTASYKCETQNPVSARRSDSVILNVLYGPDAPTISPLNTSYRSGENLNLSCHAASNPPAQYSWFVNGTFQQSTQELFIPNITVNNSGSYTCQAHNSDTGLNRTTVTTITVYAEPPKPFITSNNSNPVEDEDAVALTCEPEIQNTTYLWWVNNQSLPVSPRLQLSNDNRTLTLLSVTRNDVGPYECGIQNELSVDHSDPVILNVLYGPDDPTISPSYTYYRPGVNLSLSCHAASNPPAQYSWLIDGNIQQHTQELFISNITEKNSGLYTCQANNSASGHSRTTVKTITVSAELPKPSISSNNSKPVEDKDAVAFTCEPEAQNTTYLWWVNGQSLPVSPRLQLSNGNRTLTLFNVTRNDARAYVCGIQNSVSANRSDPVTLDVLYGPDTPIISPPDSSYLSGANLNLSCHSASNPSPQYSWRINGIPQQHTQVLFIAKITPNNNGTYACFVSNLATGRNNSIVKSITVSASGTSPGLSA", "test": "cell-based or functional assay"}, "[3]": {"biological_target": "T3, human CD3 expressed on Jurkat cells (human, UniProt P07766 23-207)", "T3 construct": "CD3 complex on Jurkat T cells; also called CD3 on Jurkat cells; huCD3", "T3 sequence (P07766 23-207 limits assumed)": "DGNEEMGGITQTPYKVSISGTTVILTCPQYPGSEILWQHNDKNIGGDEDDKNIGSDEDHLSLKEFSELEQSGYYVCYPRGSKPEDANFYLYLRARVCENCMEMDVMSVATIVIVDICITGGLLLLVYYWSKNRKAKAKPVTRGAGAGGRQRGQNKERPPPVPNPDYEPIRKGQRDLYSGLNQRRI", "test": "flow cytometry on Jurkat cells", "description": "Binding of the different bispecific constructs to CD3 on Jurkat cells (ATCC #TIB-152), and the respective tumor antigen on target cells, was determined by FACS. Briefly, cells were harvested, counted and checked for viability. 0.15-0.2 million cells per well (in PBS containing 0.1% BSA; 90 μl) were plated in a round-bottom 96-well plate and incubated with the indicated concentration of the bispecific constructs and corresponding IgG controls (10 μl) for 30 min at 4° C. […] After the incubation, cells were centrifuged (5 min, 350×g), washed with 150 μl PBS containing 0.1% BSA, resuspended and incubated for further 30 min at 4° C. with 12 μl/well of a FITC- or PE-conjugated secondary antibody. Bound constructs were detected using a FACSCantoII (Software FACS Diva). The “(scFv)₂” molecule was detected using a FITC-conjugated anti-His antibody (Lucerna, #RHIS-45F-Z). For all other molecules, a FITC- or PE-conjugated AffiniPure F(ab′)2 Fragment goat anti-human IgG Fcγ Fragment Specific (Jackson Immuno Research Lab #109-096-098/working solution 1:20, or #109-116-170/working solution 1:80, respectively) was used. Cells were washed by addition of 120 μl/well PBS containing 0.1% BSA and centrifugation at 350×g for 5 min. A second washing step was performed with 150 μl/well PBS containing 0.1% BSA. […] EC50 values were calculated using the GraphPad Prism software.\nAs a control, the equivalent maximum concentration of the corresponding IgGs and the background staining due to the labeled 2ndary antibody (goat anti-human FITC-conjugated AffiniPure F(ab′)2 Fragment, FcγFragment-specific, Jackson Immuno Research Lab #109-096-098) were assessed as well."}}, "note": "Substitutions are numbered along the chain they refer to."}
{"binder": "B1", "values": [{"measurement": "Kd", "setting": "[1]", "value": 5, "unit": "nM"}]}
{"binder": "B2", "values": [{"measurement": "Kd", "setting": "[1]", "value": 0.7, "unit": "nM"}]}
{"binder": "B3", "values": [{"measurement": "Kd", "setting": "[1]", "value": 2, "unit": "nM"}]}
{"binder": "B4", "values": [{"measurement": "Kd", "setting": "[1]", "value": 0.02, "unit": "nM"}]}
{"binder": "B5", "values": [{"measurement": "Kd", "setting": "[1]", "value": 0.7, "unit": "nM"}]}
{"binder": "B6", "values": [{"measurement": "Kd", "setting": "[1]", "value": 0.6, "unit": "nM"}]}
{"binder": "B7", "values": [{"measurement": "Kd", "setting": "[1]", "value": 0.3, "unit": "nM"}]}
{"binder": "B8", "values": [{"measurement": "Kd", "setting": "[1]", "value": 0.4, "unit": "nM"}]}
{"binder": "B9", "values": [{"measurement": "EC50 of T cell-mediated killing (LDH release), LS-174T cells, human PBMCs E:T 10:1, 28 h", "setting": "[2]", "value": 1.56, "unit": "nM"}, {"measurement": "EC50 of T cell-mediated killing (LDH release), MC38-huCEA cells, human PBMCs E:T 10:1, 24 h", "setting": "[2]", "value": "~3.2", "unit": "nM"}, {"measurement": "EC50 of T cell-mediated killing (LDH release), MKN-45 cells, human PBMCs E:T 10:1, 28 h", "setting": "[2]", "value": 213, "unit": "pM"}, {"measurement": "binding result", "setting": "[3]", "value": "binds"}]}
